{"source": "patent US20100261660A1", "about": "(published 2010)", "key": {"[1]": {"molecular_target": "T1, Soluble CD28-Ig (extracellular domain of human CD28 fused to the Fc portion of human IgG1) (human, UniProt P10747 19-152, biotin-conjugated (NHS-biotin) in the FACS binding assays)", "T1 construct": "extracellular domain; bought from R&D Systems; also called sCD28-Ig; CD28-Ig Fc; not shown: Fc portion of human IgG1", "test": "competitive FACS on transfected cells, biotin-sCD28-Ig with FITC-sCTLA-4-Ig; grade 0-2 of CD28/CTLA-4 ratio vs WT hB7-1"}, "[2]": {"molecular_target": "T2, Soluble CTLA-4-Ig (extracellular domain of human CTLA-4 fused to the Fc portion of human IgG1) (human, UniProt P16410 36-161, FITC-conjugated in the FACS binding assays)", "T2 construct": "extracellular domain; bought from R&D Systems; also called sCTLA-4-Ig; CTLA-4-Ig Fc; not shown: Fc portion of human IgG1", "T2 sequence (P16410 36-161)": "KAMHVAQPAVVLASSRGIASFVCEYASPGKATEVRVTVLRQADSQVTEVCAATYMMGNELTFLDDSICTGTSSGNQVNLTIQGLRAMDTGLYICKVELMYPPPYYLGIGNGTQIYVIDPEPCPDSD", "test": "flow cytometry of transfected cells, at least two experiments"}, "[3]": {"molecular_target": "CD28 receptor on human T cells (human, UniProt P10747 19-220)", "test": "cell-based or functional assay"}, "[4]": {"molecular_target": "T1, Soluble CD28-Ig (extracellular domain …)", "test": "flow cytometry of transiently transfected 293 cells"}, "[5]": {"molecular_target": "T2, Soluble CTLA-4-Ig (extracellular domain …)", "test": "binding assay, data not shown"}, "[6]": {"molecular_target": "T1, Soluble CD28-Ig (extracellular domain …)", "test": "binding assay, data not shown"}, "[7]": {"molecular_target": "T2, Soluble CTLA-4-Ig (extracellular domain …)", "test": "two-color FACS of transfected 293 cells", "method": "(§1) The labeled cells were subsequently handled at 4° C., washed twice with DMEM/10% FCS and incubated with 0.1 μg/ml Streptavidin-phycoerythrin (PE) (Pharmingen, San Diego, Calif.) in 100 μl for 15 min. Biotin binds the fluorescence marker Streptavidin-PE. (R-PE has an excitation maximum of 565 nanometers (nm) and an emission maximum of 578 nm. B-PE has excitation and emission maxima of 545 nm and 578 nm, respectively. FITC has excitation and emission maxima of 494 and 519, respectively.) The cells were again washed twice and resuspended in 200 μl medium with 5 μg/ml propidium iodide (PI). The cells were then analyzed using a FACSCalibur flow cytometer and CellQuest software (BDIS, San Jose, Calif.). Cell sorting was performed by flow-cytometry based cell sorting screening methods using FACS (Fluorescence-Activated Cell Sorting) Vantage SE cell sorter (BDIS) (Becton Dickinson; San Jose, Calif.). The staining concentration was determined for each labeled protein to provide a maximal Mean Fluorescence Intensity (MFI) and minimal background signal (e.g., optimum staining concentration was the concentration per 10⁶ cells)."}, "[8]": {"molecular_target": "T1, Soluble CD28-Ig (extracellular domain …)", "test": "two-color FACS of transfected 293 cells", "method": "as §1"}}}
{"binder": "Round 1 CD28BP-84 (ligand, also called R1clone 84; Clone 84) GISQVTKSVKEMAALSCDYNISIDELARMRIYWQKDQQMVLSIISGQVEVWPEYKNRTFPDIINNLSLMILALRLSDKGTYTCVVQKNENGSFRREHLTSVTLSIRADSPVPSITDIGHPAPNVKRIRCSASGGFPEPRLAWMEDGEELNAVNTTVDQDLDTELYSVSSELDFNVTNNHSIVCLIKYGELSVSQIFPWSKPKQEPPIDQLPFWVIIPVSGALVLTAVVLYCLACRHVARWKRTRRNEETVGTERLSPIYLGSAQSSG", "values": [{"measurement": "Binding Score", "setting": "[1]", "result": 1}, {"measurement": "binding result", "setting": "[2]", "result": "binds"}]}
{"binder": "Round 1 CD28BP-118 (ligand, also called R1clone 118; Clone 118) GISQVTKSVKEMAALSCDYNISIDELARMRIYWQKDQQMVLSIISGQVEVWPEYKNRTFPDIINNLSLMILALRLSDKGTYTCVVQKNENGSFRREHLTSVTLSIRADFPVPSITDIGHPAPNVKRIRCSASGDFPEPRLAWMEDGEELNAVNTTVDQDLDTELYSVSSELDFNVTNNHSIVCLIKYGELSVSQIFPWSKPKQEPPIDQLPFWVIIPVSGALVLTAVVLYCLACRHVARWKRTRRNEETVGTERLSPIYLGSAQSSG", "values": [{"measurement": "Binding Score", "setting": "[1]", "result": 1}, {"measurement": "binding result", "setting": "[2]", "result": "binds"}]}
{"binder": "Round 2 CD28BP-15 (ligand, also called clone R2 CD28BP-15; clone 15) ITPKSVTKRVKETVMLSCDYNTSTEELTSLRIYWQKDSKMVLAILPGKVQVWPEYKNRTITDMNDNPRIVILALRPSDSGTYTCVIQKPVLKGAYKLEHLASVRLMIRADFPVPTINDLGNPSPNIRRLICSTSGGFPRPHLYWLENGEELNATNTTVSQDPGTELYMISSELDFNVTNNHSIVCLIKYGELSVSQIFPWSKPKQEPPIDQLPFWVIIPVSGALVLTAVVLYCLACRHVARWKRTRRNEETVGTERLSPIYLGSAQSSG", "values": [{"measurement": "Binding Score", "setting": "[1]", "result": 2}, {"measurement": "T cell proliferation (3H-thymidine incorporation), irradiated 293 transfectants with purified human T cells and anti-CD3 mAbs", "setting": "[3]", "result": "~10", "unit": "fold"}]}
{"binder": "CD28BP-FLAG (CD28BP-15 with a FLAG-tag) (ligand, also called FLAG-construct of CD28BP-15) DYKDDDDKITPKSVTKRVKETVMLSCDYNTSTEELTSLRIYWQKDSKMVLAILPGKVQVWPEYKNRTITDMNDNPRIVILALRPSDSGTYTCVIQKPVLKGAYKLEHLASVRLMIRADFPVPTINDLGNPSPNIRRLICSTSGGFPRPHLYWLENGEELNATNTTVSQDPGTELYMISSELDFNVTNNHSIVCLIKYGELSVSQIFPWSKPKQEPPIDQLPFWVIIPVSGALVLTAVVLYCLACRHVARWKRTRRNEETVGTERLSPIYLGSAQSSG", "values": [{"measurement": "binding result", "setting": "[4]", "result": "binds"}]}
{"binder": "Baboon B7-1 (ligand) VIHVTKEVKEVATLSCGHNVSVEELAQTRIYWQKEKKMVLTMMSGDMNIWPEYKNRTIFDITNNLSIVILALRPSDEGTYECVVLKYEKDAFKREHLAEVMLSVKADFPTPSITDFEIPPSNIRRIICSTSGGFPEPHLFWLENGEELNAINTTVSQDPGTELYTVSSKLDFNMTTNHSFVCLIKYGHLRVNQTFNWNTPKQEHFPDNLLPSWAITLISVNGIFVICCLTYCFAPRCRERRRNETLRRESVRPV", "values": [{"measurement": "binding result", "setting": "[5]", "result": "binds"}, {"measurement": "binding result", "setting": "[6]", "result": "binds"}]}
{"binder": "Rhesus B7-1 (ligand, also called rhesus monkey B7-1) VIHVTKEVKEVATLSCGHNVSVEELAQTRIYWQKEKKMVLTMMSGDMNIWPEYKNRTIFDITNNLSIVILALRPSDEGTYECVVLKYEKDAFKREHLAEVMLSVKADFPTPSITDFEIPPSNIRRIICSTSGGFPEPRLSWLENGEELNAISTTVSQDPETELYTVSSKLDFNMTTNHSFMCLIKYGHLRVNQTFNWNTPKQEHFPDNLLPSWAITLISVNGIFVICCLTHCFAPRCRERRRNETLRRESVRPV", "values": [{"measurement": "binding result", "setting": "[7]", "result": "binds"}, {"measurement": "binding result", "setting": "[8]", "result": "binds"}]}
{"binder": "Orangutan B7-1 (ligand) VIHVTKEVKEVATLSCGHNVSVEELAQTRIYWQKEKKMVLTMMSGDMNIWPEYKNRTIFDITNNLSIVILALRPSDEGTYECVVLKYEKDAFKREHLAEVTLSVKADFPTPSISDFEIPTSNIRRMICSTSGGFPEPHLSWLENGEELNAISTTVSQDPETELYAVSSKLDFNMTTNHSFMCLIKYGHLRVNQTFNWNTPKQEHFPDNLLPSWAITLISVNGIFVICCLTYCFAPRCRERRSNERLRRESVRPV", "values": [{"measurement": "binding result", "setting": "[5]", "result": "binds"}, {"measurement": "binding result", "setting": "[6]", "result": "binds"}]}
